Reference: article PMC7080496

Key:
[1] = molecular target: Adenosine A2A receptor (A2AAR), human, residues 1 to 316, with the M1A/M4T mutation, reconstituted in rHDLs (nanodiscs) (human) (UniProt P29274)
[2] = molecular target: Adenosine A2A receptor (A2AAR), human, residues 1 to 316, with the M1A/M4T mutation, reconstituted in rHDLs (nanodiscs) (human) (UniProt P29274); remark: listed apart in the source
[3] = molecular target: Adenosine A2A receptor (A2AAR), human, residues 1 to 316, with the M1A/M4T mutation, reconstituted in rHDLs (nanodiscs) (human) (UniProt P29274); remark: listed apart in the source

Chain of heterotrimeric G protein consisting of human Gαs, bovine Gβ1, and human Gγ2 (P63092 whole entry): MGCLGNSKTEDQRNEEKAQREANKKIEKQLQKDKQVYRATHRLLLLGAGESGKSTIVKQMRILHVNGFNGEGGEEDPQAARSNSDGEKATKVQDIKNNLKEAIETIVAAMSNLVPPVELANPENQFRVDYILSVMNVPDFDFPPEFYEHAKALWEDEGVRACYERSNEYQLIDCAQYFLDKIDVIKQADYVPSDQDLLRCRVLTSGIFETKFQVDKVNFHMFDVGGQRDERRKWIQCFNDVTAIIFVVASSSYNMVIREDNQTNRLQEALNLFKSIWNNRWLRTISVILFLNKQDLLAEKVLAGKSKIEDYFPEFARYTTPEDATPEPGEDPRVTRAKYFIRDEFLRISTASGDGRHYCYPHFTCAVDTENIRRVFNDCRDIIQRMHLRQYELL
Chain of heterotrimeric G protein consisting of human Gαs, bovine Gβ1, and human Gγ2 (P62871 whole entry): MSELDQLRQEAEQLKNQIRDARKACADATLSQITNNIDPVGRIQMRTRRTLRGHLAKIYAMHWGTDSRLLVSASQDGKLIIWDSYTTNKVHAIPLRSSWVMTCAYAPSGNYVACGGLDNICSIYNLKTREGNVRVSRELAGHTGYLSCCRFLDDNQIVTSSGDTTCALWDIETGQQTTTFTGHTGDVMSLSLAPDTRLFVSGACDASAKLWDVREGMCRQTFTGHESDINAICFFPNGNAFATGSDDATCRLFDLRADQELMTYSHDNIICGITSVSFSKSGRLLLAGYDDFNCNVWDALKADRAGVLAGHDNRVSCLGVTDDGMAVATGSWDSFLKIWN
Chain of heterotrimeric G protein consisting of human Gαs, bovine Gβ1, and human Gγ2 (P59768 whole entry): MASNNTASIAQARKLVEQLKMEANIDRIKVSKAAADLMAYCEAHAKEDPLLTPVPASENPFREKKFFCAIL
Chain of Adenosine A2A receptor (A2AAR), human, residues 1 to 316, with the M1A/M4T mutation, reconstituted in rHDLs (nanodiscs) (human) (P29274 1-316 M1A/M4T): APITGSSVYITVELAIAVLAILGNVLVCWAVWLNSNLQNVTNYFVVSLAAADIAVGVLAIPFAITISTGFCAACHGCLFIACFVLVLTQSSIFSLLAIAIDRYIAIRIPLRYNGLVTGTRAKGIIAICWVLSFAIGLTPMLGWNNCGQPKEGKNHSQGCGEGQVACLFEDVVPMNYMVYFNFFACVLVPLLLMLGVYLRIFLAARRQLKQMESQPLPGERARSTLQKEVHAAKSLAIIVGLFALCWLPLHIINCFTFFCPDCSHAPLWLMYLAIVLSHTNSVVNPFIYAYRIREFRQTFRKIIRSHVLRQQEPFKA

initial [35S]-GTPγS binding rate, A2AAR in rHDL(ARA) against A2AAR in rHDL(POPC/POPG), full agonist [1]: 1.1 times
initial [35S]-GTPγS binding rate, A2AAR in rHDL(DHA) against A2AAR in rHDL(POPC/POPG), full agonist [1]: 1.88 times
GDP/GTP reaction rate, A2AAR in rHDL(DHA) against A2AAR in rHDL(ARA) [2]: 1.7 fold
initial [35S]-GTPγS binding rate, A2AAR in rHDL(DHA) in which DHA constitutes 15% of the acyl chains, against A2AAR in rHDL(POPC/POPG) [3]: 1.29 times
Substance: heterotrimeric G protein consisting of human Gαs, bovine Gβ1, and human Gγ2 (from UniProt P63092 1-394; P62871 1-340; P59768 1-71) (complex)
